Experimental data: PMC2914249, “Structure and Reactivity of Bacillus subtilis MenD Catalyzing the First Committed Step in Menaquinone Biosynthesis” (Journal of Molecular Biology, 2010)
Where a chain is given by its changes, count along the chain named. Numbers in names are those of the source.

B1: BsMenD (MenD, SEPHCHC synthase, EC 2.2.1.9) (Bacillus subtilis subsp. subtilis str. 168; I489A) (protein)
chain: MTVNPITHYIGSFIDEFALSGITDAVVCPGSRSTPLAVLCAAHPDISVHVQIDERSAGFFALGLAKAKQRPVLLICTSGTAAANFYPAVVEAHYSRVPIIVLTADRPHELREVGAPQAINQHFLFGNFVKFFTDSALPEESPQMLRYIRTLASRAAGEAQKRPMGPVHVNVPLREPLMPDLSDEPFGRMRTGRHVSVKTGTQSVDRESLSDVAEMLAEAEKGMIVCGELHSDADKENIIALSKALQYPILADPLSNLRNGVHDKSTVIDAYDSFLKDDELKRKLRPDVVIRFGPMPVSKPVFLWLKDDPTIQQIVIDEDGGWRDPTQASAHMIHCNASVFAEEIMAGLTAATRSSEWLEKWQFVNGRFREHLQTISSEDVSFEGNLYRILQHLVPENSSLFVGNSMPIRDVDTFFEKQDRPFRIYSNRGANGIDGVVSSAMGVCEGTKAPVTLVIGDLSFYHDLNGLLAAKKLGIPLTVILVNNDGGGAFSFLPQASEKTHFEDLFGTPTGLDFKHAAALYGGTYSCPASWDEFKTAYAPQADKPGLHLIEIKTDRQSRVQLHRDMLNEAVREVKKQWEL
notes: full length (Thr2-Leu580 seen in crystal); N-terminal hexa-His tag with TEV site kept (24 extra residues); E. coli BL21(DE3); dimer peak used (tetramer in crystal); active site formed by two subunits
B2: BsMenD (MenD, SEPHCHC synthase, EC 2.2.1.9) (Bacillus subtilis subsp. subtilis str. 168; R106A) (protein)
chain: B1 chain with R106A, A489I
notes: as for B1
B3: BsMenD (MenD, SEPHCHC synthase, EC 2.2.1.9) (Bacillus subtilis subsp. subtilis str. 168; R409A) (protein)
chain: B1 chain with R409A, A489I
notes: as for B1
B4: BsMenD (MenD, SEPHCHC synthase, EC 2.2.1.9) (Bacillus subtilis subsp. subtilis str. 168; L493A) (protein)
chain: B1 chain with A489I, L493A
notes: as for B1
B5: BsMenD (MenD, SEPHCHC synthase, EC 2.2.1.9) (Bacillus subtilis subsp. subtilis str. 168; F490A) (protein)
chain: B1 chain with A489I, F490A
notes: as for B1
B6: BsMenD (MenD, SEPHCHC synthase, EC 2.2.1.9) (Bacillus subtilis subsp. subtilis str. 168) (protein)
chain: B1 chain with A489I
notes: as for B1
B7: BsMenD (MenD, SEPHCHC synthase, EC 2.2.1.9) (Bacillus subtilis subsp. subtilis str. 168; R32A) (protein)
chain: B1 chain with R32A, A489I
notes: as for B1
B8: BsMenD (MenD, SEPHCHC synthase, EC 2.2.1.9) (Bacillus subtilis subsp. subtilis str. 168; K299A) (protein)
chain: B1 chain with K299A, A489I
notes: as for B1
B9: BsMenD (MenD, SEPHCHC synthase, EC 2.2.1.9) (Bacillus subtilis subsp. subtilis str. 168; R428A) (protein)
chain: B1 chain with R428A, A489I
notes: as for B1

What was measured:
purified protein [1] = substrate: O=C(O)CCC(=O)C(=O)O; experiment: purified protein; assay type: biochemical, Bacillus subtilis; conditions: 50 mM Tris-HCl pH 7.8, 20 mM NaCl, 5 mM MgSO4, 23 °C, co-substrate isochorismate
purified protein [2] = substrate: C=C(O[C@H]1C=CC=C(C(=O)O)[C@@H]1O)C(=O)O; experiment: purified protein; assay type: biochemical, Bacillus subtilis; conditions: 50 mM Tris-HCl pH 7.8, 20 mM NaCl, 5 mM MgSO4, 23 °C, co-substrate α-ketoglutarate

Protein | Km (purified protein [1]) [µM] | Km (purified protein [2]) [µM] | kcat (purified protein [2]) [s⁻¹] | kcat/Km (purified protein [2]) [M⁻¹ s⁻¹] | kcat (purified protein [1]) [s⁻¹] | kcat/Km (purified protein [1]) [M⁻¹ s⁻¹]
B1 | 346 ± 10 | 27 ± 1 | 0.095 ± 0.00333 | 3500 ± 167 | – | –
B2 | – | 41 ± 4 | 0.0117 ± 0.00333 | 300 ± 167 | – | –
B3 | 159 ± 18 | 8.5 ± 1.2 | 0.0233 ± 0.00167 | 2670 ± 333 | – | –
B4 | – | 39 ± 1 | 0.317 ± 0.0167 | 8170 ± 500 | – | –
B5 | 274 ± 12 | – | – | – | 0.0183 ± 0.00167 | 65 ± 3.33
B6 | 22 ± 5 | 1.1 ± 0.2 | 0.317 ± 0.0167 | 317000 ± 50000 | 0.233 ± 0.0333 | 10700 ± 5000
B7 | – | 49 ± 7 | 0.183 ± 0.0167 | 3670 ± 167 | – | –
B8 | – | 8.4 ± 1.2 | 0.417 ± 0.0333 | 50000 ± 5000 | – | –
B9 | 514 ± 54 | – | – | – | 0.0567 ± 0.00333 | 117 ± 16.7
